This is an account of results in article PMC8126837 (2021).

The target of experiment [1] is T1, SARS-CoV-2 receptor-binding domain (RBD), wild type (SARS-CoV-2, UniProt P0DTC2 331-527). In words: BLI. A general note: BLI is a label-free optical method that tracks binding on a fibre tip over time.
The target of experiment [2] is T1, SARS-CoV-2 receptor-binding domain …. In words: BLI. This is another data set of the same source.
For experiment [3], the target named is T2, SARS-CoV-2 spike (recombinant, used in bio-layer interferometry) (SARS-CoV-2, UniProt P0DTC2). In words: BLI.
In experiment [4] the target is T1, SARS-CoV-2 receptor-binding domain …. As to the kind of experiment: BLI. The source holds these as a separate data set.
The target in experiment [5] is T2, SARS-CoV-2 spike (recombinant, used in …). As to the kind of experiment: BLI. The source holds these as a separate data set.
Experiment [6] has as its target T1, SARS-CoV-2 receptor-binding domain …. In words: BLI. The source holds these as a separate data set.
Experiment [7] concerns the target SARS2 S1.
Experiment [8] concerns the target SARS-CoV S1 subunit (SARS-CoV, UniProt P59594 14-667).

Where two headings read alike, the source gives them in different places.

B1: WNb 41 (VHH)
VHH: QVQLQESGGGLVQPGGSLRLSCAVSGFTLDYYAIGWFRQAPGKEREGVSCISSSGGSTNYADSVKGRFTISRDNAKNTVYLQMNGLKPEDTAVYYCAAIAATYYSGSYYYQCPHDGMDYWGKGTQVTVSS
For the molecule B1, the Kd (in general, the equilibrium constant for the complex coming apart) in experiment [1] was determined as 0.55 nM. Moreover, the koff (commonly a measure of how fast the partners let go of each other) in experiment [2] is 0.000104 s⁻¹.

B2: WNb 2 (VHH)
VHH: QVQLQESGGGLVQPGGSLRLSCAVSGFTLDYYAIGWFRQAPGKEREGVSCISSSGGNTKYADSVKGRFTASRDNAKNTFYLQMNSLKPEDTAVYYCAAIAATYYSGSYYFQCPHDGMDYWGKGTQVTVSS
B2 came in with a Kd in experiment [1] of 0.36 nM. In experiment [2], this molecule had a koff of 7.34e-05 s⁻¹.

B3: WNb 67 (VHH)
VHH: QVQLQESGGGLVQPGGSLRLSCAVSGFTLDYYAIGWFRQAPGKEREGVSCISSSGGSTNYADSVKGRFTISRDNATNTVYLQMNSLKPEDTAVYYCAAIAATYYGGSYYYQCPHYGMDYWGKGTQVTVSS
As to B3, binding in experiment [1] was put at a Kd of 0.61 nM. In experiment [2], this molecule had a koff of 0.000212 s⁻¹.

B4: WNbFc 2 (Fc fusion)
chain: QVQLQESGGGLVQPGGSLRLSCAVSGFTLDYYAIGWFRQAPGKEREGVSCISSSGGNTKYADSVKGRFTASRDNAKNTFYLQMNSLKPEDTAVYYCAAIAATYYSGSYYFQCPHDGMDYWGKGTQVTVSS
Take B4: the results for the Kd in experiment [3] and in experiment [4] were less than 0.01 nM and 0.59 nM, respectively. Moreover, the koff was less than 1e-06 s⁻¹ in experiment [5] and 0.000158 s⁻¹ in experiment [6]. The EC50 (as a rule, the midpoint of the concentration-response curve) in experiment [7] came out at 1.17 nM. For the same molecule, in experiment [7], 0.66 nM corresponded to half-maximal inhibition (IC50).

B5: WNb 19 (VHH)
VHH: QVQLQESGGGLVQPGGSLRLSCAASGSMFSINVMGWYRQASGKQRELVAGITRDGATNYSDSVKGRFTISGDNAKNTVYLQMNSLKPEDTAVYYCNTNVDSVWGSRIDYFGQGTQVTVSS
Take B5: in experiment [1], the Kd turned out to be 0.46 nM. The molecule further displayed a koff in experiment [2] of 0.000107 s⁻¹.

B6: WNb 36 (VHH)
VHH: QVQLQESGGGLVQPGGSLRLSCAVSGFTLDYYAIGWFRQAPGKEREGVSCISNSGGNTKYADSVKGRFTTSVDNAQNTVYLLMNSLEPEDTAVYYCAAIAATYYSGTYYYQCPHYGMDYWGKGTQVTVSS
As to B6, binding in experiment [1] was put at a Kd of 0.43 nM. Also, the koff in experiment [2] was found to be 0.000127 s⁻¹.

B7: WNbFc 36 (Fc fusion)
chain: QVQLQESGGGLVQPGGSLRLSCAVSGFTLDYYAIGWFRQAPGKEREGVSCISNSGGNTKYADSVKGRFTTSVDNAQNTVYLLMNSLEPEDTAVYYCAAIAATYYSGTYYYQCPHYGMDYWGKGTQVTVSS
Consider B7, for which the Kd in experiment [3] was less than 0.01 nM; in experiment [4], 0.61 nM; in experiment [1], 0.36 nM. Also, the values for the koff in experiment [5] and in experiment [6] were less than 1e-06 s⁻¹ and 0.000202 s⁻¹, respectively. For the same molecule, in experiment [7], the response was half-maximal at 0.63 nM (EC50). Further, inhibition in experiment [7] was half-maximal at 0.32 nM (IC50).

B8: WNb 23 (VHH)
VHH: QVQLQESGGGLVQPGGSLRLSCAASGFTFKDYAMAWARQVPGKGLEWVSGIYSDGNTYYADSVKGRFTISRDNAKNTVYLRMNSLKPEDTAVYYCATERHPQGAADFGSWGQGTQVTVSS
B8 came in with a Kd in experiment [1] of 9.03 nM. Moreover, the koff in experiment [2] is 0.00245 s⁻¹.

B9: WNb 7 (VHH)
VHH: QVQLQESGGGLVQPGGSLRLSCAAPGFTFSSYAMGWFRQVPGKGLEWVSGIYSDGSTYYADSVKGRFTISRDNAKNTVYLQMNSLKPEDTAVYYCAKDRLEGSSWPERDFGSWGQGTQVTVSS
On to B9, for which the affinity in experiment [1], expressed as Kd, was 0.26 nM. This molecule returned a koff in experiment [2] of 3.19e-05 s⁻¹.

B10: WNbFc 15 (Fc fusion)
chain: QVQLQESGGGLVQPGGSLRLSCAASGFTFSSYLMGWFRQVPGKGLEWVSGIYSDGGTYYADSVKGRFTISRDNAKNTVYLQMNSLKPEDTAVYYCATDRMEGSSWPERDFGSWGQGTQVTVSS
Take B10: the Kd is less than 0.01 nM in experiment [3], 0.44 nM in experiment [4] and 0.25 nM in experiment [1]. Also, the EC50 in experiment [8] stood at 1.69 nM; in experiment [7], 1.6 nM. The koff is less than 1e-06 s⁻¹ in experiment [5] and 0.000128 s⁻¹ in experiment [6]. Further, the IC50 (commonly the midpoint of a concentration-inhibition curve) in experiment [7] came out at 1.07 nM.

B11: WNb 53 (VHH)
VHH: QVQLQESGGGLVQPGGSLRLSCAASGFTFSSYLMGWARQVPGKGLEWVAGIYSDGSTYYADSVKGRFIISRDNAKNTVYLQMNSLKPEDTAVYYCAKDRMEDSTWPERDFGSWGQGTQVTVSS
In the case of B11, in experiment [1], the Kd is 0.64 nM. In addition, the koff in experiment [2] came out at 0.00013 s⁻¹.

B12: WNb 50 (VHH)
VHH: QVQLQESGGGLVQPGGSLRLSCAASGFTFSSYAMGWFRQVPGKGLEWVSGIYSDGSTYYADSVKGRFTISRDNAKNTVYLQMNSLKPEDTAVYYCAADRMAGSRWPERDFGSWGQGTQVTVSS
As to B12, in experiment [1], the Kd was determined as 0.63 nM. Further, the koff in experiment [2] came out at 0.00013 s⁻¹.

B13: WNbFc 7 (Fc fusion)
chain: QVQLQESGGGLVQPGGSLRLSCAAPGFTFSSYAMGWFRQVPGKGLEWVSGIYSDGSTYYADSVKGRFTISRDNAKNTVYLQMNSLKPEDTAVYYCAKDRLEGSSWPERDFGSWGQGTQVTVSS
B13: the Kd in experiment [3] was less than 0.01 nM; in experiment [4], 0.7 nM; in experiment [1], 0.35 nM. For the same molecule, the half-maximal effective concentration (EC50) in experiment [8] worked out at 1.12 nM; in experiment [7], 0.46 nM. The koff is less than 1e-06 s⁻¹ in experiment [5] and 0.000191 s⁻¹ in experiment [6]. Further, half-maximal inhibition in experiment [7] (IC50) required 0.45 nM.

B14: WNb 15 (VHH)
VHH: QVQLQESGGGLVQPGGSLRLSCAASGFTFSSYLMGWFRQVPGKGLEWVSGIYSDGGTYYADSVKGRFTISRDNAKNTVYLQMNSLKPEDTAVYYCATDRMEGSSWPERDFGSWGQGTQVTVSS
Take B14: in experiment [1], the Kd was determined as 0.14 nM. For the same molecule, the koff in experiment [2] is 3.05e-05 s⁻¹.

B15: WNb 10 (VHH)
VHH: QVQLQESGGGLVQPGGSLRLSCAASGFTFRRYLMGWARQVPGKGLEWVSGIYSDGSTYYADSVKGRFTISRDNAKNTVYLQMNSLKPEDTAVYYCAKDRMDGSTWPERDFGSWGQGTQVTVSS
As for B15, the Kd in experiment [1] was found to be 0.68 nM. In addition, the koff in experiment [2] was found to be 9.64e-05 s⁻¹.
